Test results: patent US20110281938A1

Molecular target: tissue factor:FVIIa complex (TF:FVIIa) (UniProt P13726)
Assay: cell-based or functional assay

Chain of tissue factor:FVIIa complex (TF:FVIIa) (P13726 33-295 limits assumed, chain 1 of 2): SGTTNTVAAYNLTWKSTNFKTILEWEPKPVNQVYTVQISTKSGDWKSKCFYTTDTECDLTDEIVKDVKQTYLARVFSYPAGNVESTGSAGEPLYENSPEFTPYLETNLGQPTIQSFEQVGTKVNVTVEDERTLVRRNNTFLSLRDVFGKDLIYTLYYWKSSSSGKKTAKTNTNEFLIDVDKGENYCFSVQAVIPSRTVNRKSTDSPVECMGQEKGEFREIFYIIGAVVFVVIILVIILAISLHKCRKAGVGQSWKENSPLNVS
Chain of tissue factor:FVIIa complex (TF:FVIIa) (P08709 61-466 limits assumed, chain 2 of 2, further chain): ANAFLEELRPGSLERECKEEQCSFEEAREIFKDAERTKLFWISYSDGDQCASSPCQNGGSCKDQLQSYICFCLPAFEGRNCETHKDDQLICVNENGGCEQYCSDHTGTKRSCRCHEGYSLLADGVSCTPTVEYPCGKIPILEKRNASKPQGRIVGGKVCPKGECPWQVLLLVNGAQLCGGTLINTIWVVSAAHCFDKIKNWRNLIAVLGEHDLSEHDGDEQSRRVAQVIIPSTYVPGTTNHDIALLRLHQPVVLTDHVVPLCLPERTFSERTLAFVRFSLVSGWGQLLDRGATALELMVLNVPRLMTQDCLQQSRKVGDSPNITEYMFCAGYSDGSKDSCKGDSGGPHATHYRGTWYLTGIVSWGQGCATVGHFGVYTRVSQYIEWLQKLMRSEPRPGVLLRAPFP

- rate of FXa generation at 4 minutes, extrinsic tenase (Xase) inhibition assay, 1 nM TFPI: 70%
Substance: TFPI (source and species not stated; Examples 8, 12 and 45) (from UniProt P10646 29-304)
